We go through one protein from paper PMC11416365, “Exploring the manganese-dependent interaction between a transcription factor and its corresponding DNA: insights from gas-phase electrophoresis on a nES GEMMA instrument” (Analytical and Bioanalytical Chemistry, 2024).

This data set deals with the molecule itself. The experiment in a line: nES GEMMA (gas-phase electrophoresis, nES DMA); BMntR alone at different concentrations, electrosprayed from 40 mM ammonium acetate pH 8.4; EM diameter 5.9 nm turned into a molecular weight by an EM diameter/MW correlation (34.6 kDa against 33.8 kDa theoretical for the dimer).

One may read the stoichiometry N as the number of molecules, sites or subunits per partner or assembly.

B1: MntR protein from B. subtilis (natural protein, Bacillus subtilis, UniProt P54512 1-142, looked up)
chain: MTTPSMEDYIEQIYMLIEEKGYARVSDIAEALAVHPSSVTKMVQKLDKDEYLIYEKYRGLVLTSKGKKIGKRLVYRHELLEQFLRIIGVDEEKIYNDVEGIEHHLSWNSIDRIGDLVQYFEEDDARKKDLKSIQKKTEHHNQ
notes: Manganese-dependent transcription factor MntR of Bacillus subtilis, UniProt P54512; Theoretical mass of the dimer printed as 33.8 kDa; also called BMntR; B. subtilis MntR protein; source: purified as before [3]
On to B1, for which the “stoichiometry N” value was 2.
